This is an account of results in paper PMC3883222.

What all share (experiment): single-molecule fluorescence in zero-mode waveguides
Assay [1] concerns the target Escherichia coli 70S ribosome (Cy3B-30S and BHQ-50S subunits) on biotinylated 6(FK) mRNA (E. coli) (UniProt P0AG67).
For assay [2] the target is unchanged. The source holds these as a separate data set.
Assay [3] shares this target. This is another data set of the same source.

Read-outs that look alike come from different tables or passages of the source.

Regarding “Cy5-labeled single-cysteine elongation factor G (EF-G S73C on a cysteine-free background) (from UniProt P0A6M8 1-704) (enzyme)”, in assay [1], the arrival time against that of EF-G-GDPNP turned out to be 150 % longer and the bound-state lifetime amounted to 332 ms. In assay [2], this substance returned an arrival time against that of EF-G-GDPNP of 150 % longer, a bound-state lifetime of 191 ms, a dwell time of 1.64 s and a dwell time (events with counter-rotation) of 122 ms. In assay [2], the dwell time (sampling of the non-rotated state) was determined as 64.2 ms; the dwell time (sampling of the rotated state, no conformational change) is 75.8 ms; the dwell time after the counter-rotation was 10 ms; the dwell time with fusidic acid was 8.4 s. In addition, in assay [2], the koff (as a rule, the rate constant with which the complex falls apart) was 13.2 s⁻¹; the mean dwell time with spectinomycin (sampling of the rotated state) turned out to be 351 ms; the mean dwell time with spectinomycin (successful translocation events) stood at 326 ms; the mean lifetime of the complex stood at 1.62 s. The dwell time in assay [3] was determined as 192 ms.
